Results on 10 molecules are retold here after patent US20200109196A1 (MOGAM INSTITUTE FOR BIOMEDICAL RESEARCH, published 2020).

Assay [1] has as its target T1, recombinant human CEACAM-1/CD66a protein Bulk (R&D systems; Cat. No. 2244-CM) (human, UniProt P13688 35-428).
T1 construct: Same catalogue number as HCCM1, coated as a separate antigen ('bulk'); also called HCCM1 (bulk)
T1 sequence (looked up): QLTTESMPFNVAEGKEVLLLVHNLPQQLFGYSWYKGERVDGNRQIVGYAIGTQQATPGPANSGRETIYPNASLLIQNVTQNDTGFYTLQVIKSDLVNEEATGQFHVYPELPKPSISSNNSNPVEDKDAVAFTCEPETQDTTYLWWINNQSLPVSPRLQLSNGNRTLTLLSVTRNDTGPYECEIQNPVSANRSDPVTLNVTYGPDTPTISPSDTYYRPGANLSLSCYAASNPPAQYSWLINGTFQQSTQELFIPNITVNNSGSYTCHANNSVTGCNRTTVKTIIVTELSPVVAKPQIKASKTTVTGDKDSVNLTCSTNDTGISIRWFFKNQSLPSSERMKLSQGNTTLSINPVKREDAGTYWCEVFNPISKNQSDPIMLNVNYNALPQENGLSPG
As to the kind of experiment: ELISA, coated antigen, anti-human IgG Fab-HRP. A general note: ELISA stands for enzyme-linked immunosorbent assay.

The target of assay [2] is T2, recombinant human CEACAM-1/CD66a protein (R&D systems; Cat. No. 2244-CM) (human, UniProt P13688 35-428).
T2 construct: Bought protein; captured on anti-His (His1K) biosensors in the Octet assay, so it carries a His tag; also called HCCM1; recombinant CEACAM-1/CD66a protein
T2 sequence (looked up): T1 sequence (looked up)
As to the kind of experiment: Octet QKe biolayer interferometry, anti-His (HIS1K) biosensors, antibody 6.25-400 nM. The protocol: The last well in each row was with a sample at the antibody concentration of 0 nM. Recombinant human CEACAM1 protein (R&D Systems; Cat. No. 2244-CM) was diluted to obtain a concentration of […], and dispensed into each well of another column at 200 μl/well.
As for the washing buffer, neutralization buffer and baseline buffer, Reagent/Kinetics buffer (10×) (Fortebio; Cat. No. 18-1092) were 1:10 diluted and dispensed into each well of a column in a row at 200 μl/well, and the regeneration buffer was dispensed into each well at 200 μl/well. Greiner 96-well plate was separately prepared, Reagent/Kinetics buffer (1×) was dispensed into each well of the number of biosensors to be used in a row at 200 μl/well, and Biosensors/Anti-His (His1K) (Fortebio; Cat. No. 18-5120) cassette was installed.
In general terms: Biolayer interferometry detects binding as a change in optical thickness at a sensor tip.

The target in assay [3] is T3, CEACAM5 expressed on the surface of HEK293 cells (human, UniProt P06731 35-685).
T3 construct: whole, on cells; GFP-tagged clone; also called CEACAM5-GFP
T3 sequence (looked up): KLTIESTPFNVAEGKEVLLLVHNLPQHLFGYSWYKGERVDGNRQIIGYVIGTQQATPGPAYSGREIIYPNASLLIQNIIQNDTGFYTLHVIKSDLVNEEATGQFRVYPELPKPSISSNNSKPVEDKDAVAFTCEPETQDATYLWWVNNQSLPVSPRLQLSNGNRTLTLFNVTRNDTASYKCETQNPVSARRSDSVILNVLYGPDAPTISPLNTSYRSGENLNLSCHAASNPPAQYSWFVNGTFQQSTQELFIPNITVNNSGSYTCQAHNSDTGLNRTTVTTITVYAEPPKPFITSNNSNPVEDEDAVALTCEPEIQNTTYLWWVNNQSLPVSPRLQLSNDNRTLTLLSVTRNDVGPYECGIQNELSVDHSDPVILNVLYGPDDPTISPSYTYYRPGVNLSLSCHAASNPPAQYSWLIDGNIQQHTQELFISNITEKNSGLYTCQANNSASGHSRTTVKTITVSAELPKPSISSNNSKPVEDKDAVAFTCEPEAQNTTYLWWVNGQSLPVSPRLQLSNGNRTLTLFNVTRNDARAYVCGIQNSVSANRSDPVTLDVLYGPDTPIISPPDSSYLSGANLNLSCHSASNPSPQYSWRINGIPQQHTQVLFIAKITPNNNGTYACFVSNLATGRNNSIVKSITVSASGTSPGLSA
Put plainly: flow cytometry on transfected HEK293 cells (GFP+ gate), PE goat anti-huIgG4 [b]. The protocol: (§1) HEK293 cells were added with 10 μg of each pEF1α-AcGFP-N1 vector (Clontech, Cat. No. 631973) as a control vector, CEACAM1, CEACAM3, CEACAM5, CEACAM6 and CEACAM8 plasmid vectors, followed by transfection under the condition of pulse voltage 1,100 V, pulse width 20 ms and pulse number 2. After 48 hours of transfection, GFP expression was confirmed by fluorescence microscopy. The cells were detached by treatment with 1 ml of TrypLE Express Solution (ThermoFisher Scientific; Cat. No. 12605010), resuspended in 9 ml of DMEM (Gibco, Cat. No. 11995-065) supplemented with 10% (v/v) FBS, and centrifuged at 1,200 rpm for 5 minutes, to remove the resulting supernatant.
(§2) After washing once with PBS, the cells were resuspended in a FACS buffer to obtain a concentration of 5×10⁵ cells/100 μl. Human Fc Block solution was added to the samples at 1 μl/sample, which were incubated at 4° C. for 10 minutes. The cells were treated with hulgG4 or one of the anti-CEACAM1 clones listed at 1 μg/5×10⁵ cells, which were incubated at 4° C. for 10 minutes. After washing with FACS buffer, the PE-labeled goat-anti-huIgG4 antibodies were diluted at a ratio of 1:200 in a FACS buffer, and added to the samples at 100 μl/sample, which were incubated at 4° C. for 30 minutes. The samples were filled with a FACS buffer up to 200 μl, and then centrifuged at 1,200 rpm for 5 minutes, to remove the resulting supernatant. The fixation buffer (300 μl) was added to resuspend the cells. The cells expressing GFP were selected in the FACS LSR-Fortessa device, and the expression of CEACAM members were evaluated respectively using the antibody specific to each CEACAM member (Table 3). Also, the binding of anti-CEACAM1 antibodies was evaluated by PE fluorescence channel and analyzed using the FlowJo software.
(In flow cytometry, cells or beads pass a laser one at a time.)

Assay [4] deals with T4, CEACAM3 expressed on the surface of HEK293 cells (human, UniProt P40198 35-252).
T4 construct: whole, on cells; GFP-tagged clone; also called CEACAM3-GFP
T4 sequence (looked up): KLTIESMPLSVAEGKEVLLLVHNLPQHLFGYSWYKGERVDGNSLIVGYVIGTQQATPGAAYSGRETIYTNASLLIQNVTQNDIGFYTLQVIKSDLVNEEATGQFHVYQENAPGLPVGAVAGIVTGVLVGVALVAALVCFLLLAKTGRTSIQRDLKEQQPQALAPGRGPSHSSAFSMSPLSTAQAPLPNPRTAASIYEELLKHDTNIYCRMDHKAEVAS
The assay is described as above. The protocol:
as §1, §2

Residue numbers refer to the chain shown, from its start.

B1: C19 (antibody, human IgG4 S228P, lambda, V domains shown)
VH: EVQLLESGGGLVQPGGSLRLSCAASGFTFSGYAMSWVRQAPGKGLEWVSGIYHDGGSTYYADSVKGRFTISRDNSKNTLYLQMNSLRAEDTAVYYCARVTVLCTTYGCSSYDGMDVWGQGTLVTVSS
VL: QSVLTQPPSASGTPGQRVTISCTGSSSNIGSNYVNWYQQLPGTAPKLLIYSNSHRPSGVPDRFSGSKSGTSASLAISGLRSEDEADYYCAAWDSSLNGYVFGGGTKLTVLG
For the molecule B1, the binding result in assay [1] is given as “binds”.

B2: C15 (antibody, human IgG4 S228P, lambda, V domains shown)
VH: EVQLLESGGGLVQPGGSLRLSCAASGFTFSSYSMSWVRQAPGKGLEWVSSISPNGGNKYYADSVKGRFTISRDNSKNTLYLQMNSLGAEDTAVYYCAKDPYNIYQPLFDYWGQGTLVTVSS
VL: QSVLTQPLSASGTPGQRVTISCSGSSSNIGNNYVNWYQQLPGTAPKLLIYANSNRPSGVPDRFSGSKSGTSASLAISGLRSEEEADYYCGTWDASLSAYVFGGGTKLTVLG
As to B2, in assay [1], the binding result is “binds”.

B3: C18 (antibody, human IgG4 S228P, lambda, V domains shown)
VH: EVQLLESGGGLVQPGGSLRLSCAASGFTFSNYDMSWVRQAPGKGLEWVSGISHSSGSKYYADSVKGRFTISRDNSKNTLYLQMNSLRAEDTAVYYCARDPLPCLIPKCSYYYAMDVWGQGTLVTVSS
VL: QSVLTQPPSAPGTPGQRVTISCSGSSSNIGSNAVTWYQQLPGTAPKLLIYADSHRPSGVPDRFSGSKSGTSASLAISGLRSEDEADYYCGSWDDSLNAYVFGGGTKLTVLG
Regarding B3, the binding result in assay [1] was “binds”.

B4: C22 (antibody, human IgG4 S228P, lambda, V domains shown)
VH: EVQLLESGGGLVQPGGSLRLSCAASGFTFSDYDMSWVRQAPGKGLEWVSMIYSGSSSKYYADSVKGRFTISRDNSKNTLYLQMNSLRAEDTAVYYCAKAPLPFYFRPKSYYYAMDVWGQGTLVTVSS
VL: B3 VL with P11S, A33N, D52N, D94S
B4: the binding result in assay [1] is “binds”.

B5: C25 (antibody, human IgG4 S228P, lambda, V domains shown)
VH: EVQLLESGGGLVQPGGSLRLSCAASGFTFSNYAMSWVRQAPGKGLEWVSVISHGGGSIYYADSVKGRLTISRDNSKNTLYLQMNSLRAEDTAVYYCARDPTKGYAPTFDYWGQGTLVTVSS
VL: B2 VL with L8P, N35S, N52D, N54K, E83D, T91A, S97N, A98G
notes: Made in ExpiHEK293F cells, protein A purified. huIgG4 is the isotype control and anti-huIgG4 the detection reagent; the isotype is not otherwise stated; also called anti-CEACAM1 antibody C25
In the case of B5, in assay [2], the Kd – broadly, the free concentration of one partner at which half of the binding sites on the other are occupied at equilibrium, for simple one-to-one binding – was found to be 34.9 nM; the koff (in general, a measure of how fast the partners let go of each other) is 0.000505 s⁻¹; the kon (usually the rate constant with which the complex forms) turned out to be 18200 M⁻¹ s⁻¹.

B6: 4R9 (antibody, human IgG4 S228P, lambda, V domains shown)
VH: B5 VH
VL: B3 VL with P11S, S31N, A33Y, T35S, H54R, S91A, D94L, A98G
notes: also called C25-derived clone 4R9
With B6, the binding result in assay [3] was “no binding”. Also, the binding result in assay [4] is given as “no binding”. Besides, in assay [2], the Kd worked out at 3.39 nM, the koff turned out to be 0.000567 s⁻¹ and the kon amounted to 163000 M⁻¹ s⁻¹.

B7: C17 (antibody, human IgG4 S228P, lambda, V domains shown)
VH: EVQLLESGGGLVQPGGSLRLSCAASGFTFSDYSMSWVRQAPGKGLEWVSVIYPDDGNTYYADSVKGRFTISRDNSKNTLYLQMNSLRAEDTAVYYCARGSIWWLSLIPSSYNAMDVWGQGTLVAVSS
VL: B2 VL with L8P, Y33A, N54H, E83D, T91A, S97N, A98G
With B7, in assay [1], the binding result is listed as “binds”.

B8: 4R26 (antibody, human IgG4 S228P, lambda, V domains shown)
VH: B5 VH
VL: B3 VL with P11S, S31N, A33Y, T35S, H54K, P56L, S91A, D94G, S95R, A98G
notes: also called C25-derived clone 4R26
As to B8, the binding result in assay [3] is given as “no binding”. Moreover, the binding result in assay [4] was “no binding”. Moreover, in assay [2], the equilibrium dissociation constant (Kd) came out at 1.82 nM, the koff was found to be 0.000266 s⁻¹ and the kon stood at 133000 M⁻¹ s⁻¹.

B9: 4R9_H4-n20 (antibody, human IgG4 S228P, lambda, V domains shown)
VH: B5 VH with T28N
VL: B3 VL with P11S, S31N, A33Y, T35S, H54R, S91A, D94L, A98G
notes: also called C25-derived clone 4R9_H4-n20
As for B9, in assay [3], the binding result is “no binding”. In assay [4], the binding result is “no binding”. In addition, in assay [2], the Kd is 39 nM, the koff amounted to 0.000333 s⁻¹ and the kon is 26100 M⁻¹ s⁻¹.

B10: 4R9_H2-2 (antibody, human IgG4 S228P, lambda, V domains shown)
VH: B5 VH with T107L
VL: B3 VL with P11S, S31N, A33Y, T35S, H54R, S91A, D94L, A98G
notes: also called C25-derived clone 4R9_H2-2
For B10, the binding result in assay [3] is given as “no binding”. Moreover, in assay [4], the binding result is “no binding”. In assay [2], the Kd turned out to be 3.54 nM, the koff came out at 0.000627 s⁻¹ and the association rate constant (kon) is 169000 M⁻¹ s⁻¹.
